Bridges are numbered along the chain shown (N, C = ends).
How the values were obtained:
[1] = Circular dichroism (CD) spectroscopy of linear and stapled peptides in water or 40% TFE/water (Example 3); format: physicochemical; conditions: for [0]208 mean residue ellipticity: λ = 208 nm; for [0]222 mean residue ellipticity: λ = 222 nm
Procedure, shortened: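 Spectra 180–260 nm at 20 °C, 0.5 mM N-acetylated, C-amidated peptides in 0.1M phosphate buffer (water) or 40% TFE/water, 1 mm path, five scans averaged, buffer baseline subtracted. Mean residue ellipticity reported at 222 and 208 nm with the 222/208 ratio as helicity index.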

[2] = test system: RHAMM-overexpressing (LR21) cells; experiment: Cell migration assay (Boyden chamber, Chemicon ECM510); format: cell-based; conditions: for Migration (% inhib.): % inhibition relative to positive control; for inhibition of cell migration (in words): 10 ng/mL peptide, 20 hours, compared to 30% serum control
Procedure, shortened: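 Serum-starved LR21 cells (7.5×10^4) placed in the upper Boyden chamber with or without 10 ng/mL peptide, with 30% FBS in DMEM as lower-chamber chemoattractant. Cells crossing the membrane after 20 h quantified by CyQUANT GR fluorescence (480/520 nm); mean of n=3, compared with 30% serum control.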

[3] = test system: NF-κB; experiment: Inflammation assay: NF-κB inducible SEAP reporter in RAW-Blue macrophages stimulated with PAM3CSK4; format: cell-based, murine; conditions: for Inflammation (% Inhib.): % inhibition relative to positive control; for inhibition of inflammation (SEAP / NF-κB activity, in words): 10 ng/mL peptide with 200 ng/mL PAM3CSK4, 18 hours, compared to +PAM3
Procedure, shortened: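 RAW-Blue murine RAW 264.7 macrophages carrying an NF-κB-inducible SEAP reporter were stimulated with 200 ng/mL PAM3CSK4 and given peptide at 10 ng/mL. After 18 h, supernatant SEAP was developed with QUANTI-BLUE for 20 min at 37 °C and read by absorbance at 630 nm. Values are mean and SDM of n=3.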

[4] = test system: IMR90 human fetal lung fibroblasts; experiment: Fibrosis assay: active TGF-β levels in TGF-β treated fibroblasts (ELISA); format: cell-based; conditions: for Fibrosis (% inhib.): % inhibition relative to positive control
Procedure: Compounds 132, 133, 135, 150, 152, 157-161, 265-269, 275, 277, and 278 were evaluated for their ability to inhibit fibrosis. IMR90 human fetal lung fibroblasts were obtained from ATCC and maintained in DMEM supplemented with 10% fetal bovine serum. In order to examine the effect of peptides on myofibroblast differentiation, 80% confluent cultures were serum starved overnight prior to addition of TGF-β (2 ng/mL, R&D Systems). Cells were treated with TGF-β for 24 hours prior to addition of peptides (10 ng/mL). 48 hours after addition of peptides, culture supernatants were collected and levels of active TGF-β measured using commercially available TGF-β ELISA (Quantikine, R&D Systems).
Values are the Mean and SDM n=3 replicates. *p<0.05, **p<0.01, ***p<0.001 when compared to the +TGFβ1 control. In FIG. 47, where bars are labeled with two compound numbers (“133/150” and “135/152”) this means that the data were pooled for the indicated compounds, i.e., for the non-acetylated and acetylated versions of the indicated peptides.

[5] = [θ]222/[θ]208 ratio in water, summary tables 15, 17, 19
[6] = as repeated in tables 16, 18, 20

| Substance | [0]208 mean residue ellipticity at λ=208 nm ([1]; 40% TFE/water) [deg cm^2 dmol^−1] | [0]222/[0]208 ratio of ellipticities ([1]; 40% TFE/water) | [0]222 mean residue ellipticity at λ=222 nm ([1]; 40% TFE/water) [deg cm^2 dmol^−1] | [θ]222/[θ]208 ratio of ellipticities [1, 5] | [θ]222/[θ]208 ratio of ellipticities [1, 6] | [0]222/[0]208 ratio of ellipticities ([1]; in water) | [0]208 mean residue ellipticity at λ=208 nm ([1]; water) [deg cm^2 dmol^−1] | [0]222/[0]208 ratio of ellipticities ([1]; water) | [0]222 mean residue ellipticity at λ=222 nm ([1]; water) [deg cm^2 dmol^−1] | Migration (% inhib.) [2] [% inhib.] | Inflammation (% Inhib.) [3] [% Inhib.] | Fibrosis (% inhib.) [4] [% inhib.] | inhibition of cell migration (in words) [2] | inhibition of inflammation (SEAP / NF-κB activity, in words) [3] | [0]222/[0]208 ratio of ellipticities ([1]; in 40% TFE/water) | alpha-helical character by CD (in words) ([1]; in water) | [0]208 mean residue ellipticity ([1]; in 40% TFE/water) [deg cm^2 dmol^−1] | [0]208 mean residue ellipticity ([1]; in water) [deg cm^2 dmol^−1] | [0]222 mean residue ellipticity ([1]; in 40% TFE/water) [deg cm^2 dmol^−1] | [0]222 mean residue ellipticity ([1]; in water) [deg cm^2 dmol^−1] | also measured |
| --- | --- | --- | --- | --- | --- | --- | --- | --- | --- | --- | --- | --- | --- | --- | --- | --- | --- | --- | --- | --- | --- |
| Ac-(cyclo-11-15, cyclo-16-20)-KIKHVVKLKD[ENSQK][ESEVK]KLRSQLVKRIK-NH2 [Compound 267] | -3.02E04 | 0.77 | -2.34E04 | 0.48 | 0.48 | 0.48 | -1.29E+04 | 0.48 | -6.14E+03 | 0 | 0 | 0 |  |  |  |  |  |  |  |  |  |
| Ac-(cyclo-28-32)-NLKQKIKHVVKLKDENSQLKSEVSKLR[EQLVK]RKQN-NH2 (Ac-NLKQKIKHVVKLKDENSQLKSEVSKLREQLVKRKQN-NH2; lactam 28-32; SMILES CC[C@H](C)[C@H](NC(=O)[C@H](CCCCN)NC(=O)[C@H](CCC(N)=O)NC(=O)[C@H](CCCCN)NC(=O)[C@H](CC(C)C)NC(=O)[C@H](CC(N)=O)NC(C)=O)C(=O)N[C@@H](CCCCN)C(=O)N[C@@H](Cc1c[nH]cn1)C(=O)N[C@H](C(=O)N[C@H](C(=O)N[C@@H](CCCCN)C(=O)N[C@@H](CC(C)C)C(=O)N[C@@H](CCCCN)C(=O)N[C@@H](CC(=O)O)C(=O)N[C@@H](CCC(=O)O)C(=O)N[C@@H](CC(N)=O)C(=O)N[C@@H](CO)C(=O)N[C@@H](CCC(N)=O)C(=O)N[C@@H](CC(C)C)C(=O)N[C@@H](CCCCN)C(=O)N[C@@H](CO)C(=O)N[C@@H](CCC(=O)O)C(=O)N[C@H](C(=O)N[C@@H](CO)C(=O)N[C@@H](CCCCN)C(=O)N[C@@H](CC(C)C)C(=O)N[C@@H](CCCNC(=N)N)C(=O)N[C@H]1CCC(=O)NCCCC[C@@H](C(=O)N[C@@H](CCCNC(=N)N)C(=O)N[C@@H](CCCCN)C(=O)N[C@@H](CCC(N)=O)C(=O)N[C@@H](CC(N)=O)C(N)=O)NC(=O)[C@H](C(C)C)NC(=O)[C@H](CC(C)C)NC(=O)[C@H](CCC(N)=O)NC1=O)C(C)C)C(C)C)C(C)C) [Compound 277] | -3.10E04 | 0.85 | -2.65E04 | 0.64 | 0.64 |  | -1.46E+04 | 0.64 | -9.36E+03 | 63 | 8 | 52 | significantly inhibit cell migration | significantly inhibited inflammation |  |  |  |  |  |  |  |
| Ac-(cyclo-8,12)-NLKQKIK[EVVKK]KDE-NH2 (Ac-NLKQKIKEVVKKKDE-NH2; lactam 8-12; SMILES CC[C@H](C)[C@H](NC(=O)[C@H](CCCCN)NC(=O)[C@H](CCC(N)=O)NC(=O)[C@H](CCCCN)NC(=O)[C@H](CC(C)C)NC(=O)[C@H](CC(N)=O)NC(C)=O)C(=O)N[C@@H](CCCCN)C(=O)N[C@H]1CCC(=O)NCCCC[C@@H](C(=O)N[C@@H](CCCCN)C(=O)N[C@@H](CC(=O)O)C(=O)N[C@@H](CCC(=O)O)C(N)=O)NC(=O)[C@H](CCCCN)NC(=O)[C@H](C(C)C)NC(=O)[C@H](C(C)C)NC1=O) [Compound 161] |  |  |  | 0.31 | 0.31 | 0.31 |  |  |  | 36 | 6 | 38 | significantly inhibit cell migration | significantly inhibited inflammation | 0.82 | decreased helicity | -1.96E+04 | -5.85E+03 | -1.60E+04 | -1.80E+03 |  |
| Ac-NLKQKIKHVVKLKDENSQLKSEVSKLRSQLVKRKQN-NH2 [Compound 275] | -3.52E04 | 0.83 | -2.96E04 | 0.35 | 0.35 |  | -9.71E+03 | 0.35 | -3.35E+03 | 60 | 0 | 0 | significantly inhibit cell migration |  |  |  |  |  |  |  |  |
| Ac-(cyclo-7-11, cyclo-28-32)-NLKQKI[EHVVK]LKDENSQLKSEVSKLR[EQLVK]RKQN-NH2 (Ac-NLKQKIEHVVKLKDENSQLKSEVSKLREQLVKRKQN-NH2; lactam 7-11, 28-32; SMILES CC[C@H](C)[C@H](NC(=O)[C@H](CCCCN)NC(=O)[C@H](CCC(N)=O)NC(=O)[C@H](CCCCN)NC(=O)[C@H](CC(C)C)NC(=O)[C@H](CC(N)=O)NC(C)=O)C(=O)N[C@H]1CCC(=O)NCCCC[C@@H](C(=O)N[C@@H](CC(C)C)C(=O)N[C@@H](CCCCN)C(=O)N[C@@H](CC(=O)O)C(=O)N[C@@H](CCC(=O)O)C(=O)N[C@@H](CC(N)=O)C(=O)N[C@@H](CO)C(=O)N[C@@H](CCC(N)=O)C(=O)N[C@@H](CC(C)C)C(=O)N[C@@H](CCCCN)C(=O)N[C@@H](CO)C(=O)N[C@@H](CCC(=O)O)C(=O)N[C@H](C(=O)N[C@@H](CO)C(=O)N[C@@H](CCCCN)C(=O)N[C@@H](CC(C)C)C(=O)N[C@@H](CCCNC(=N)N)C(=O)N[C@H]2CCC(=O)NCCCC[C@@H](C(=O)N[C@@H](CCCNC(=N)N)C(=O)N[C@@H](CCCCN)C(=O)N[C@@H](CCC(N)=O)C(=O)N[C@@H](CC(N)=O)C(N)=O)NC(=O)[C@H](C(C)C)NC(=O)[C@H](CC(C)C)NC(=O)[C@H](CCC(N)=O)NC2=O)C(C)C)NC(=O)[C@H](C(C)C)NC(=O)[C@H](C(C)C)NC(=O)[C@H](Cc2c[nH]cn2)NC1=O) [Compound 278] | -2.44E04 | 0.86 | -2.12E04 | 0.74 | 0.74 | 0.74 | -1.33E+04 | 0.74 | -9.95E+03 | 45 | 0 | 0 | significantly inhibit cell migration |  |  | greatest alpha-helical character |  |  |  |  | inhibition of fibrosis (active TGF-β, in words) ([4]; 10 ng/mL peptide, 48 hours, compared to +TGFβ1 control): strong trend towards inhibition of fibrosis |
| Ac-(cyclo-4,8)-VSK[ERSQK]VKRKQN-NH2 (Ac-VSKERSQKVKRKQN-NH2; lactam 4-8; SMILES CC(=O)N[C@H](C(=O)N[C@@H](CO)C(=O)N[C@@H](CCCCN)C(=O)N[C@H]1CCC(=O)NCCCC[C@@H](C(=O)N[C@H](C(=O)N[C@@H](CCCCN)C(=O)N[C@@H](CCCNC(=N)N)C(=O)N[C@@H](CCCCN)C(=O)N[C@@H](CCC(N)=O)C(=O)N[C@@H](CC(N)=O)C(N)=O)C(C)C)NC(=O)[C@H](CCC(N)=O)NC(=O)[C@H](CO)NC(=O)[C@H](CCCNC(=N)N)NC1=O)C(C)C) [Compound 150] |  |  |  | 0.53 | 0.53 | 0.53 |  |  |  | 0 | 0 | 31 | significantly inhibit cell migration |  | 0.81 | decreased helicity | -1.21E+04 | -6.30E+03 | -9.75E+03 | -3.35E+03 |  |

From patent publication US10562935B2, “Stapled peptides and uses thereof” (London Health Sciences Centre Research Inc., priority 2015, dated 2020)
